From the RNAGym collection of RNA variant scans (doi:10.1073/pnas.2313332121) come the findings set out here.

B1: TPR 5TU (parent)
chain: GGAUCUUCUCGAUCUAACAAAAAAGACAAAUCUGCCACAAAGCUUGAGAGCAUCUUCGGAUGCAGAGGCGGCAGCCUUCGGUGGCGCGAUAGCGCCAACGUUCUCAACUAUGACACGCAAAACGCGUGCUCCGUUGAAUGGAGUUUAUCAUG

This sample holds only a part of the variants without activity.

Variants of B1 are the subject of this data set. Nature of the data set: polymerase ribozyme fitness, log enrichment relative to wild type (log ratio); higher = more active; in vitro selection for triplet polymerase activity. Summed up:
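A single round of triplicate in vitro selection, including frozen incubation at −7 °C, was applied to PCR-built, transcribed mutant libraries of each subunit of a heterodimeric triplet polymerase ribozyme. Illumina sequencing of input and output libraries retained genotypes with ≥10 input reads and ≥1 read per output. Fitness is the base-2 logarithm of genotype enrichment divided by wild-type enrichment, from inverse-variance-weighted replicate averages.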
Turning to GGAUCCUCUCGAUCUAACAAAAAAGACAAAUCUGCCACAAAGCUUGAGAGCAUCUUCGGAUGCAGAGGCGGCAGCCUUCGGUGGGGCGAUAGCGCCAACGUUCUCAACUAUGACACGCAAAACGCGUGCUCCGUUGAAUGGAGUUUAUCAUG, the “polymerase ribozyme fitness (log ratio)” value was -2.95.
With GGAUCGUCUCGAUCUAACGAAAAAGACAAAUCUGCCAGAAAGCUUGAGAGCAUCUUCGGAUGCAGAGGCGGCAGCCUUCGGUGGCGCGAUAGCGCAAACGUUCUCUACUAUGACACGCAAAACGCGUGCUCCGUUGAAUGGAGUUUAUCAUG, the “polymerase ribozyme fitness (log ratio)” value is -3.84.
Then GGAUCCUCUCGAUCUAACAAAAAAGACAAAUCUGCCACAAAGCUUGAGAGCAUCUUCGGAUGCAGAGGCAGCAGCGUUCGGUGGCGAAAUAGCGCCAACGUUCUCAACUAUGACAAGCAAAACGCGUGCUCCGUUGAAUGGAGUUUAUCAUG, with ≤ -4.2; and GGAUCGUCUCGAUCUAACAACAAAGACAAAUCUGCCACAAAGCUUGAGAGCAUCUUCGGAUGCAGAGGCGGCAGUCUUCGGUGGCGCGAUAGCGCCAACGUUCUCAACUAUGACACGCAAAACGCGUGCUCCGUUGAAUGGAGAUUAUCAUG, with -0.201.
Consider GGAUCGUCUCGAUCUAACAAAAAAGUCAAAUCUGCCACAAAGCUUGAGAGCAUCUUCGGAUGCAGAGGCGGCAGCCUUCGGUGGCGCGAUAGUGCCAACGUUCUCAACUAUGACACGCAAAACGCGUGCUCCGUUGAAUGGAGUUUAUCAUG, for which the “polymerase ribozyme fitness (log ratio)” value was -2.39.
GGAUCGUCUCGAUCUGACAAAAAAGACAUAUCUGCCACAAAGCUUGAGAGCAUUUUCGGAUGCAGAGGCGGCAGCCUUCGGUGGCACGAUAGCGCCAACGUGCUCAACUAUGACACGCAAAACGCGUGCUCCGUUGAAUGGAGUUUAUCAUG: the “polymerase ribozyme fitness (log ratio)” value was ≤ -4.2.
Then GGAUCGUCUCGAUCUAUCAAAAAAGACAAAUCUGCCACAAAGCUUGAGAGCAUCUUCGGGUGCAGAGGCGGCAGCCUUCGGUGGCGCGAUAGAGCCAUCGUUCUCAACUAUGACACGCAAAACGCGUGCUCCGUUGAAUGGAGUUUAUCAUG, with -1.75; and GGAUCCUCUCGAUCUAACAAAAAAGACAAACCUGCCACAAAGCUUGAGAGCUUCUUCAGAUGCAGAGGCGGCAGCCUUCGGUGGCGCGAUAGCGGCAACGUUCUCAACUAUGACACGCAAAACGCGUGCUCCGUUGAAUGGAGUAUAUCAUG, with -2.9.
In the case of GGAUCGUCUCGAUCUAACAAAAGAGACAAAUCUGCCACAAAGCUUGAGAGCAUCUUCGGAUGCAGAGGCGGCAGCCUUCGGUGGCGCGAUAGCGCCAACGUUCUCAACUAUGACACGCAAAACGCGUGCUCCGUUGAAUGGAGGUUAUCAUG, the “polymerase ribozyme fitness (log ratio)” value is -3.95.
On to GGAUCCUCUCGAUCUAACAAAAAAGACAAAUCUGCCACAAAGCUUGAGAGCAUCUUCGGAUGCAGAGGCGGCAGCCUUCGGUGGCGCGAUAGCGCCAACGUUCUCAACUAUGACACCCAAAACGCGUGCUCCGUUGAAUGGAGUUUAUCAUG, for which the “polymerase ribozyme fitness (log ratio)” value was -0.247.
Consider GGAUCGUCUCGAUCUAACAUAAAAGACAAAUCUGCCACAAAGUUUGUGAGCAUCUUCGAAUGCACAGGCGGCCGCCUUCGGUGGCGCUAUAGCGCAAACGUUCUCAACUAUGACACGCAAAACGCGUGCUCCGUUGAAUGGGGUUUAUCAUG, for which the “polymerase ribozyme fitness (log ratio)” value was ≤ -4.2.
In the case of GGAUCGUCUCGAUCUAACAAAAAAGCCAAAUCUGCCACAAAGCUUGAGAGCAUCUUCGGAUGCAGAGGCGGCAGCCUUCGGUUGCGCGUUAGCGCCAACGUUCUCAACUAUGACACGCAAAACGCGUGCUCCGUUGAAUGGAGUUUAUCAUG, the “polymerase ribozyme fitness (log ratio)” value was -3.85.
Consider GGAUCCUCUCGAUCUAACAAAAAAGACAAAUCUGCCACAAAGCUUGAGAGCAACUUCGAAUGCAGAGGCGGCAGCCUUCGGUAGCGCGAGAGCGCCAACGUUCUCAACUAUGACACGUAAAACGCGUGCUUCGUUGGCUGGAGUUUAUCAUG, for which the “polymerase ribozyme fitness (log ratio)” value was ≤ -4.2.
Regarding GGAUCCUCUCGAUCUAACAAAAAAGACAAAUCUGCCACAAAGCUUGACAGCAUCUUCGGAUGCAAAGGCGGCAGCCUACAGUGGCGCCAUAGCGCCAACGUUCUCGACUAUGACACGCAAAACGCGCGCUCCGUUGAAUGGAGUUUAUCAUU, the “polymerase ribozyme fitness (log ratio)” value is ≤ -4.2.
As to GGAUCCUCUCGAUCUAACAAAAAAGACAAAUCUGCCACAAAGCAUGAGAGCAUCUACGGACGCAGAGGCGGCAGCCUUCGGUGGCGCGAUGGCGCCAACGUUCUCAACUAUGACACGCAAAACGCGUGCACUGUUGAAUGGAGUUUAUCCGG, the “polymerase ribozyme fitness (log ratio)” value is ≤ -4.2.
Consider GGAUCGUCUCGAUCUAACAAAAAAGACAAAUCUGCCACAAAGCUUGUGAGCAUCUUCGGAGGCAGAGGAGGCAGCCUUCGGUGGCGCGAUAGCGCCAACGUUCUCAACUAUGACACGCAAAACGCGUGCUCCGUUGAAUGGAGUUUAUCAUG, for which the “polymerase ribozyme fitness (log ratio)” value is ≤ -4.2.
In the case of GGAUCGUCUCGAUCUAACAAAAAAGACAAAUCUGCCACACAGCUUGAGAGCAUCUUCGGAUGCAGAGGCGGCAGCCUUCGGUGGCGCGAUAGCGCCAACGUUCUCAACUAUGACACGCAAAACGCGUGCUCCGUUGAAUGGAGUUUAUCAUG, the “polymerase ribozyme fitness (log ratio)” value came out at 1.13.
Then GGAUCCUCUCGAUCUAACAAAAAAGACAAAUCUGCCACAAAGCUUGAGAGCAUCUUCGGAUGCAGAGGCGGCAGCCUUCGGUAGCGCGAUAGCGCCAACGUUCUCAACUAUGAUACGCAAAACGCGUGCUCCGUUGAAUGGAGUUUAUCAUG, with -2.57.
In the case of GGAUCCUCUCGAUCUAACAAAAAAGACAAAUCUGCCACAAAGCUUGAGAGCAUCUGCGGAUGCCGAGGCGGCAGCCUUCGGUGGCGCGAUAGCGCCAACGUUCUCAACUAUGACACGCAAAACGCGUGCUCCGUUGAAUGGAUUUUAUCAUG, the “polymerase ribozyme fitness (log ratio)” value is ≤ -4.2.
